42 molecules from patent publication US20100135997A1 (MEDGENE, published 2010) can be followed below.

Changes are numbered by the printed parent chain.

Sequences and labels used below:
B1: SEQ ID NO 66 (receptor)
chain: MHLPKPTLWAEPGSVITMDQPVTLRCQGGQETQEYRLYREKKTAPWITRIPQELVKKGQFPIPSITWEHAGRYRCYYGSDTSQWSASSDPLELVVTGVYIKPTLSAQPSPVVNSGGNVTLQCDSQVAFDGFILCKEGEDEHPQCLNSQPHARGSSRAIFSVGPVSPSRRWWYRCYAYDSNSPYEWSLPSDLLELDVDG
notes: mutated soluble two domain ILT-2
B2: SEQ ID NO 24 (receptor)
chain: MHLPKPTLWAEPGSVITLQSPVTLRCQGGQETQQYRLYREKKTAPWITRIPQELVKKGQFPIPSITWEHAGRYRCYYGSDTRQWSASSDPLELVVTGVYIKPTLSAQPSPVVNSGGNVTLQCDSQVAFDGFILCKEGEDDHPQCLNSQPHARGSSRAIFSVGPVSPSRRWRYRCYAYPIWTPYEWSLPSDLLELDVDG
notes: as for B1
B3: SEQ ID NO 6 (receptor)
chain: B2 chain with P178D, I179S, W180N, T181S
notes: as for B1
B4: SEQ ID NO 25 (receptor)
chain: B2 chain with P178V, I179A, T181A
notes: as for B1
B5: SEQ ID NO 135 (receptor)
chain: MGHLPKPTLWAEPGSVITMDQPVTLRCQGGQETQEYRLYREKKTAPWITRIPQELVKKGQFPIPSITWEHAGRYRCYYGSDTSQWSASSDPLELVVTGVYIKPTLSAQPSPVVNSGGNVTLQCDSPFIADGFILCKEGEDEHPQCLNSQPHARGSSRAIFSVGPVSPSRRWWYRCYAYMSWSPYEWSLPSDLLELDVDG
notes: as for B1
B6: SEQ ID NO 136 (receptor)
chain: B5 chain with P126M, I128L, A129V
notes: as for B1
B7: SEQ ID NO 33 (receptor)
chain: MGHLPKPTLWAEPGSVITMDQPVTLRCQGGQETQEYRLYREKKTAPWITRIPQELVKKGQFPIPSITWEHAGRYRCYYGSDTAGRSESSDPLELVVTGVYIKPTLSAQPSPVVNSGGNVTLQCDSQVAFDGFILCKEGEDEHPQCLNSQPHARGSSRAIFSVGPVSPSRRWWYRCYAYVAWAPYEWSLPSDLLELDVDG
notes: as for B1
B8: SEQ ID NO 41 (receptor)
chain: B7 chain with V179M, A180S, A182S
notes: as for B1
B9: SEQ ID NO 123 (receptor)
chain: B5 chain with E35Q, S83R, P126Q, F127V, I128A, A129F, E141D, W172R, M179D, W181N
notes: mutated soluble two domain ILT-2; also called Clone 64; c64
B10: SEQ ID NO 39 (receptor)
chain: B7 chain with V179M, A180S
notes: as for B1
B11: SEQ ID NO 134 (receptor)
chain: B5 chain with I128V, A129S
notes: as for B1
B12: SEQ ID NO 130 (receptor)
chain: B5 chain with F127W, I128L
notes: as for B1
B13: SEQ ID NO 129 (receptor)
chain: B5 chain with I128L, A129T
notes: as for B1
B14: SEQ ID NO 31 (receptor)
chain: B7 chain with V179P, A180I, A182T
notes: as for B1
B15: SEQ ID NO 128 (receptor)
chain: B5 chain with F127W, I128V
notes: as for B1
B16: SEQ ID NO 37 (receptor)
chain: B7 chain with V179P, A182T
notes: as for B1
B17: SEQ ID NO 133 (receptor)
chain: B5 chain with I128L, A129S, R170K
notes: as for B1
B18: SEQ ID NO 131 (receptor)
chain: B5 chain with I128Q
notes: mutated soluble two domain ILT-2; also called c132
B19: SEQ ID NO 35 (receptor)
chain: B7 chain with V179M, A180N
notes: as for B1
B20: SEQ ID NO 132 (receptor)
chain: B5 chain with D130E
notes: as for B1
B21: SEQ ID NO 23 (receptor)
chain: MAGHLPKPTLWAEPGSVITMDQPVTLRCQGGQETQEYRLYREKKTAPWITRIPQELVKKGQFPIPSITWEHAGRYRCYYGSDTSQWSASSDPLELVVTGVYIKPTLSAQPSPVVNSGGNVTLQCDSQVAFDGFILCKEGEDEHPQCLNSQPHARGSSRAIFSVGPVSPSRRWWYRCYAYVEWLPYEWSLPSDLLELDVDG
notes: as for B1
B22: SEQ ID NO 55 (receptor)
chain: B21 chain with V180P, E181I, L183T, L189S, P190G
notes: as for B1
B23: SEQ ID NO 47 (receptor)
chain: B21 chain with V180M, E181S, W182N, L183A
notes: as for B1
B24: SEQ ID NO 32 (receptor)
chain: B21 chain with M20Q, D21G, Q22S, E181A, L183A
notes: as for B1
B25: SEQ ID NO 45 (receptor)
chain: B21 chain with V180M, E181S, W182N, L183S
notes: as for B1
B26: SEQ ID NO 59 (receptor)
chain: B21 chain with V180D, E181S, W182N, L183S, L189S, P190G
notes: as for B1
B27: SEQ ID NO 58 (receptor)
chain: B21 chain with V180D, E181S, W182N, L183S, L189Q, P190M
notes: as for B1
B28: SEQ ID NO 48 (receptor)
chain: B21 chain with V180D, E181S, L183A
notes: as for B1
B29: SEQ ID NO 30 (receptor)
chain: B21 chain with M20Q, D21G, Q22S, V180P, E181I, L183T
notes: as for B1
B30: SEQ ID NO 51 (receptor)
chain: B21 chain with V180P, E181I, L183T, P190G
notes: as for B1
B31: SEQ ID NO 44 (receptor)
chain: B21 chain with V180P, E181A, W182Y, L183T
notes: as for B1
B32: SEQ ID NO 43 (receptor)
chain: B21 chain with V180M, E181S, W182Y, L183S
notes: as for B1
B33: SEQ ID NO 53 (receptor)
chain: B21 chain with V180P, E181I, L183T, S188T, L189R, P190G
notes: as for B1
B34: SEQ ID NO 57 (receptor)
chain: B21 chain with V180D, E181S, W182N, L183S, S188T, L189R, P190G
notes: as for B1
B35: SEQ ID NO 54 (receptor)
chain: B21 chain with V180P, E181I, L183T, L189T, P190S
notes: as for B1
B36: SEQ ID NO 40 (receptor)
chain: B21 chain with M20Q, D21G, Q22S, V180M, E181S, L183S
notes: as for B1
B37: SEQ ID NO 36 (receptor)
chain: B21 chain with M20Q, D21G, Q22S, V180P, E181A, L183T
notes: as for B1
B38: SEQ ID NO 56 (receptor)
chain: B21 chain with V180P, E181I, L183T, S188T, P190G
notes: as for B1
B39: SEQ ID NO 52 (receptor)
chain: B21 chain with V180P, E181I, L183T, L189Q, P190M
notes: as for B1
B40: SEQ ID NO 38 (receptor)
chain: B21 chain with M20Q, D21G, Q22S, V180M, E181S, L183A
notes: as for B1
B41: SEQ ID NO 46 (receptor)
chain: B21 chain with V180D, E181S, L183S
notes: as for B1
B42: SEQ ID NO 34 (receptor)
chain: B21 chain with M20Q, D21G, Q22S, V180M, E181N, L183A
notes: as for B1

The assay has as its target T1, HLA-A*0201 loaded with the Carcinoembryonic antigen (CEA)-derived … peptide (biotin on the C-terminal biotinylation tag).
T1 construct: Soluble, biotinylated, immobilised on a streptavidin chip
The assay is described as follows: Biacore SPR. The protocol: SPR measures changes in refractive index expressed in response units (RU) near a sensor surface within a small flow cell, a principle that can be used to detect receptor ligand interactions and to analyse their affinity and kinetic parameters. The probe flow cells were prepared by immobilising the pMHC complexes in flow cells via biotin-tag binding. The assay was then performed by passing soluble ILT-like molecule over the surfaces of the different flow cells at a constant flow rate, measuring the SPR response in doing so.
In general terms: In SPR one partner is held on a chip, and binding of the other changes the refractive index at the surface.
Usually Kd stands for a measure of binding affinity in units of concentration. The low end stands for higher affinity, the high end for lower affinity. By koff is commonly meant a measure of how fast the partners let go of each other. Higher therefore signals fast dissociation. Molecule B1 yielded a dissociation constant (Kd) of no more than 1 µM and an off-rate (koff) of no more than 2 s⁻¹.
The like results for B2 were, in that order, no more than 1 µM and no more than 2 s⁻¹.
The like results for B3 were, in that order, no more than 1 µM and no more than 2 s⁻¹.
In turn, B4 gave an equilibrium dissociation constant (Kd) of no more than 1 µM and a koff of no more than 2 s⁻¹.
The like results for B5 were, in that order, no more than 1 µM and no more than 2 s⁻¹.
The like results for B6 were, in that order, no more than 1 µM and no more than 2 s⁻¹.
On the same counts, the results for B7 are no more than 1 µM and no more than 2 s⁻¹.
Consider B8, for which the Kd was no more than 1 µM and the off-rate (koff) is no more than 2 s⁻¹.
For B9, the Kd is no more than 1 µM and the koff was no more than 2 s⁻¹.
For B10, the dissociation constant Kd was no more than 1 µM and the koff is no more than 2 s⁻¹.
In turn, B11 yielded a Kd of no more than 1 µM and a koff of no more than 2 s⁻¹.
On the same counts, the results for B12 are no more than 1 µM and no more than 2 s⁻¹.
The like results for B13 were, in that order, no more than 1 µM and no more than 2 s⁻¹.
On the same counts, the results for B14 are no more than 1 µM and no more than 2 s⁻¹.
With B15, the Kd is no more than 1 µM and the off-rate constant (koff) is no more than 2 s⁻¹.
On the same counts, the results for B16 are no more than 1 µM and no more than 2 s⁻¹.
The like results for B17 were, in that order, no more than 1 µM and no more than 2 s⁻¹.
The like results for B18 were, in that order, no more than 1 µM and no more than 2 s⁻¹.
Regarding B19, the dissociation constant (Kd) was no more than 1 µM and the koff is no more than 2 s⁻¹.
On to B20, for which the dissociation constant (Kd) was no more than 1 µM and the koff was no more than 2 s⁻¹.
The like results for B21 were, in that order, no more than 1 µM and no more than 2 s⁻¹.
On the same counts, the results for B22 are no more than 1 µM and no more than 2 s⁻¹.
On the same counts, the results for B23 are no more than 1 µM and no more than 2 s⁻¹.
Molecule B24 returned a Kd of no more than 1 µM and a koff of no more than 2 s⁻¹.
The like results for B25 were, in that order, no more than 1 µM and no more than 2 s⁻¹.
On the same counts, the results for B26 are no more than 1 µM and no more than 2 s⁻¹.
In turn, B27 came in with an equilibrium dissociation constant (Kd) of no more than 1 µM and an off-rate constant (koff) of no more than 2 s⁻¹.
The like results for B28 were, in that order, no more than 1 µM and no more than 2 s⁻¹.
On to B29, for which the Kd is no more than 1 µM and the koff is no more than 2 s⁻¹.
Molecule B30 showed a Kd of no more than 1 µM and an off-rate constant (koff) of no more than 2 s⁻¹.
On the same counts, the results for B31 are no more than 1 µM and no more than 2 s⁻¹.
On the same counts, the results for B32 are no more than 1 µM and no more than 2 s⁻¹.
The like results for B33 were, in that order, no more than 1 µM and no more than 2 s⁻¹.
B34 displayed a Kd of no more than 1 µM and an off-rate constant (koff) of no more than 2 s⁻¹.
The like results for B35 were, in that order, no more than 1 µM and no more than 2 s⁻¹.
On the same counts, the results for B36 are no more than 1 µM and no more than 2 s⁻¹.
The like results for B37 were, in that order, no more than 1 µM and no more than 2 s⁻¹.
B38: the equilibrium dissociation constant (Kd) is no more than 1 µM and the koff is no more than 2 s⁻¹.
In the case of B39, the Kd is no more than 1 µM and the off-rate constant (koff) was no more than 2 s⁻¹.
The like results for B40 were, in that order, no more than 1 µM and no more than 2 s⁻¹.
The like results for B41 were, in that order, no more than 1 µM and no more than 2 s⁻¹.
On the same counts, the results for B42 are no more than 1 µM and no more than 2 s⁻¹.
